Target: receptor of advanced glycation end products (RAGE) (UniProt Q15109 23-404)
Sequence (Q15109 23-404): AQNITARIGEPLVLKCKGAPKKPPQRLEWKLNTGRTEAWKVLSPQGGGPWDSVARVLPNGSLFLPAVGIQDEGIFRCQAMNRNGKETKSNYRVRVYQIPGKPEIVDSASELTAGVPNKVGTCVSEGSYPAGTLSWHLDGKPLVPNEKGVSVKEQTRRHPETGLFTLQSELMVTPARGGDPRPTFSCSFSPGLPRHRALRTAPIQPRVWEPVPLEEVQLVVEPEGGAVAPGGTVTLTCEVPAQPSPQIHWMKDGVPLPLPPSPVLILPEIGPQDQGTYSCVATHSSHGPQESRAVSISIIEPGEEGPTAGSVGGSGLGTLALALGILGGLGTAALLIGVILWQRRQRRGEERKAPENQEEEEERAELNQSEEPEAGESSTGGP

- Kd: ~16 nM
B1: chitinase 3-like 1 (CHI3L1) (natural protein)
chain: not shown

— article PMC8627417 (Journal for Immunotherapy of Cancer, 2021)
